Non-standard residues stand in square brackets, D forms with d. No end group written: not given here. pT = C[C@@H](OP(=O)(O)O)[C@H](N)C(=O)O; pS = N[C@@H](COP(=O)(O)O)C(=O)O
Key:
HLA-A*0201 [1] = target: T1, HLA-A*0201 (human); test: not described
T1 construct: also called HLA-A2

HLA B*0702 [2] = target: T2, HLA B*0702 (human); test: MS of peptides eluted from HLA; L/M column: L/M
T2 construct: Class I MHC molecule of the cells from which the associated phosphopeptides were detected; also called HLA-B7

HLA B*0702 [3] = target: T2, HLA B*0702; test: MS of peptides eluted from HLA; L/M column: M
HLA-A*0201 [4] = target: T1, HLA-A*0201; test: competition with iodinated [..] for purified HLA-A*0201 plus β2M, capture on W6/32 plates
HLA-A*0201 [5] = target: T1, HLA-A*0201; test: HLA-A2 binding affinity
HLA-A*0201 [6] = target: T1, HLA-A*0201; test: competition binding assay on purified HLA-A*0201
HLA B*0702 [7] = target: T2, HLA B*0702; test: MS of peptides eluted from HLA; L/M column: empty
HLA-A*0201 [8] = target: T1, HLA-A*0201; test: HLA-A2 binding affinity, method not described
HLA-B*0702 [9] = target: T3, HLA-B*0702 (human); test: HLA-B7 eluate MS; AML1; 3 means 6-25 copies/cell
T3 construct: also called HLA-B7

HLA-A*0201 [10] = target: T1, HLA-A*0201; test: HLA-A2 eluate MS; CLL2; 1 means <1 copy/cell
HLA-A*0201 [11] = target: T1, HLA-A*0201; test: HLA-A2 eluate MS; CLL4; 1 means <1 copy/cell
HLA-A*0201 [12] = target: T1, HLA-A*0201; test: MS of HLA-A*0201 (BB7.2) eluate; cultured melanocytes; +++ means 50-500 copies/cell
HLA-B*0702 [13] = target: T3, HLA-B*0702; test: HLA-B7 eluate MS; ALL1; 3 means 6-25 copies/cell

RVA[pS]PTSGVK (also called RVAk) [IRS2 phosphopeptide RVAsPTSGVK]: no binding (HLA-A*0201 [1]).

RPA[pS]ARAQPGL [RPAsARAQPGL]: binds (HLA B*0702 [2]).

RPA[pS]PAAKL [RPAsPAAKL]: binds (HLA B*0702 [3]).

B1: pS33-βcat(V)30 (YLDsGIHSGV) (peptide)
peptide: YLD[pS]GIHSGV
notes: also called pS33-βcatenin30-39(V); modified phosphopeptide
B1 was tested, and the IC50 (HLA-A*0201 [4]) was 0.041 µg/mL, the “fold enhancement of HLA-A2 binding affinity over pS33-βcatenin30-39” value (HLA-A*0201 [5]) was ~10 fold and the “fold higher HLA-A*0201 binding affinity than pS33-βcat30” value (HLA-A*0201 [6]) was 8 fold.

RPV[pS]PFQEL [RPVsPFQEL]: binds (HLA B*0702 [7]).

RVA[pS]PTSGVKR [IRS2 phosphopeptide RVApSPTSGVKR]: no binding (HLA-A*0201 [1]).

IMDR[pT]PEKL (also called natural BCAR3pT130) [BCAR3 phosphopeptide IMDRtPEKL]: binds (HLA-A*0201 [8]).

QPR[pS]PGPDYSL [GFI1 phosphopeptide QPRsPGPDYSL]: binds (HLA-B*0702 [9]).

KPR[pS]PVVEL [KPRsPVVEL]: binds (HLA B*0702 [2]).

KAK[pS]PAPGL [NCOR2 phosphopeptide KAKsPAPGL]: binds (HLA-A*0201 [10]).

KMD[pS]FLDMQL [N4BP2 phosphopeptide KMDsFLDMQL]: binds (HLA-A*0201 [11]).

RQL[pS]SGVSEI (also called HSPB1) [Heat shock protein 27 (HSP27) phosphopeptide RQLpSSGVSEI]: binds (HLA-A*0201 [12]).

KPP[pT]PGASF [SPEN phosphopeptide KPPtPGASF]: binds (HLA-B*0702 [13]).

SPRR[pS]RSISL [SPRRsRSISL]: binds (HLA B*0702 [2]).

RPV[pS]PFQEL [phosphopeptide RPVsPFQEL (no gene name in Table 7; no database hit)]: binds (HLA-B*0702 [13]).

RLS[pS]PLHFV (also called Protein FAM134A) [ORF 17, chromosome 2 phosphopeptide RLSpSPLHFV]: binds (HLA-A*0201 [12]).
